From patent US20160303183A1 (WUHAN YICHENG BIOTECH, published 2016) come the findings set out here.

For this test, the target named is T1, proliferating cell nuclear antigen (PCNA) (human, UniProt P12004 1-261).
T1 construct: Endogenous intracellular protein, immunoprecipitated from HT29 cell lysate
The test is described as follows: not described.

T1 sequence (P12004 whole entry): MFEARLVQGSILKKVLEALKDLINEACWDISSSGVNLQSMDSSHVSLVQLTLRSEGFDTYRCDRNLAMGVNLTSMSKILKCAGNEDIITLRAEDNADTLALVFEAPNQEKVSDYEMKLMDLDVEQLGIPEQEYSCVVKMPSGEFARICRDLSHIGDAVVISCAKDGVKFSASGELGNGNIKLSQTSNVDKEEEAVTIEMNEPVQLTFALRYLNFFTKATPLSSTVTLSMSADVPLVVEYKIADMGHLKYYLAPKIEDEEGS

B1: polypeptide P15 (peptide)
peptide: MPYSTELIFYIEMDP
notes: 15-residue polypeptide fragment
B1: the binding result was “binds”.
